Measurements reported in PMC4281351, “Heterogeneity of quaternary structure of glucosamine-6-phosphate deaminase from Giardia lamblia” (Parasitology Research, 2014).
Several values for one entry are separate records, joined by “and”; a condition that tells them apart may be missing. Equal entries are not always repeated.

B1: wild-type glucosamine-6-phosphate deaminase of Giardia lamblia (GlmNagB) (enzyme, UniProt O97439 1-266, looked up)
chain: MPSIHVSKCADPAIKLAHRIAEVVRSKPNCVLGLATGSTPIPVYQELARLHREEGLDFSQVRTFNLDEYAGLPPTHDQTYRFFMEEHLFSKVNIKPENVHFLNGMASDYEKECERYEQELKAIGPCDVWLLGIGHNGHIAFNEPGSPRDSRTRVVCLTQSTIDANARFFGNDKSKVPTKALSVGIATIMESREILLLATGESKREAVTKSVKGKCETHCPASFLHEHPHCRFYVDMDAGKVVDNTCCQATNQASCCGSTSCHAAKA
notes: glucosamine-6-phosphate deaminase of Giardia lamblia, GPI1 (GN6PI) gene cloned from strain MR4; primers run from the start ATG to the stop codon; calculated mass 29.4 kDa; No tag (pETTopo-GlmNagB); In solution a mixture of monomer, homodimer and homotetramer; also called wild-type GlmNagB; native GlmNagB; source: E. coli BL21(DE3) pLysS, purified (streptomycin sulfate, ammonium sulfate, PEG, ion …)
B2: G. lamblia GlcN6P deaminase with C-terminal His6 fusion (GlmNagB-HisC) (enzyme, Giardia lamblia, UniProt O97439 1-266, looked up)
chain: B1 chain
notes: glucosamine-6-phosphate deaminase of Giardia lamblia, GPI1 (GN6PI) gene cloned from strain MR4; forward primer from the start ATG, reverse primer adds six His codons after the last codon and then the stop; calculated mass 30.2 kDa with the tag; pETTopo-GlmNagB-HisC; hexaHis stands directly at the C-terminus; source: E. coli BL21(DE3) pLysS, purified (Ni2+-IDA agarose); not shown: His6, …
B3: G. lamblia GlcN6P deaminase with N-terminal His6 fusion (GlmNagB-HisN) (enzyme, Giardia lamblia, UniProt O97439 1-266, looked up)
chain: B1 chain
notes: glucosamine-6-phosphate deaminase of Giardia lamblia, GPI1 (GN6PI) gene cloned from strain MR4; NdeI/BamHI insert from the start ATG to the stop codon in pET15b; calculated mass 31.7 kDa with the tag; source: E. coli BL21(DE3) pLysS, purified (Ni2+-IDA agarose); not shown: His6, N-terminal, kept

Target: the molecule itself
Test: SEC; Superdex 200HR 10/300 GL; 0.5 ml applied, 0.5 ml/min; 50 mM potassium phosphate pH 7.0, 0.15 M NaCl; masses from a plot of log molecular mass versus Kav; fresh preparations and preparations stored for several hours at 4 °C or of higher protein concentration

Protein	stoichiometry N
B1	4 and 2
B2	4 and 2
B3	4 and 2
